In IntAct's records for PubMed 16762039:

Biological target: hic1_human HIC1 (UniProt Q14526)
Sequence (Q14526 whole entry): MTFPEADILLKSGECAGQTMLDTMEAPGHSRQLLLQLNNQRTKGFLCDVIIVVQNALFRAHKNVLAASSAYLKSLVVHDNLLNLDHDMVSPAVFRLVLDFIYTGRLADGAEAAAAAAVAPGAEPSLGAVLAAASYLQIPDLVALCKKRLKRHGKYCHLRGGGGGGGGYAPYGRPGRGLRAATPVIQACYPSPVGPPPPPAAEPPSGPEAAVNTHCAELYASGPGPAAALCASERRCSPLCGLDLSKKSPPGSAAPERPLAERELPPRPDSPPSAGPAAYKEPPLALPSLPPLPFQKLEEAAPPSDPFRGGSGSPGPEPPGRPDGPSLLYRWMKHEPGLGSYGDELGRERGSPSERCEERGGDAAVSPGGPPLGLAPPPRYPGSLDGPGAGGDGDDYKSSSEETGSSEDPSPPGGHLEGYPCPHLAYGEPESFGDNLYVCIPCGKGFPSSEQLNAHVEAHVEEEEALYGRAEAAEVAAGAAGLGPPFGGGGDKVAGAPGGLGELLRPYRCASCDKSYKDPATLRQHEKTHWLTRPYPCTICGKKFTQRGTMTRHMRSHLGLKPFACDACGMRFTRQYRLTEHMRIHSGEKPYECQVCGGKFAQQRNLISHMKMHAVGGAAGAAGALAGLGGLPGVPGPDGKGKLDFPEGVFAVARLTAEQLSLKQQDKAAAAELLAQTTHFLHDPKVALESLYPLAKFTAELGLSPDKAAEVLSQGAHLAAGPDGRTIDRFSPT

Sequence of C-terminal-binding protein 2 (Mus musculus), P56546 A58E (P56546 whole entry A58E): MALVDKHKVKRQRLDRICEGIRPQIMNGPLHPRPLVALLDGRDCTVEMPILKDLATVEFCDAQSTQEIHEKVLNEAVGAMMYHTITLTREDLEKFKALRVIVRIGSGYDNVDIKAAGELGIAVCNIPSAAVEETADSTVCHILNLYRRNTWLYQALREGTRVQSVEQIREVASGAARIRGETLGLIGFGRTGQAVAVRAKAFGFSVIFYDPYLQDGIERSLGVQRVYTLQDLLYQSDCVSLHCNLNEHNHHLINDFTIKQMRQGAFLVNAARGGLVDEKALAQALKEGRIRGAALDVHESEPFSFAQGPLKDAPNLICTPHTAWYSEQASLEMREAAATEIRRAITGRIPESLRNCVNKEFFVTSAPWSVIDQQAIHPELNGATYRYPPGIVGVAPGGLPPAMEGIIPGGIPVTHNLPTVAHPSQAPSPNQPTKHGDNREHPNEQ
Sequence of C-terminal-binding protein 2 (Mus musculus), P56546 V72R (P56546 whole entry V72R): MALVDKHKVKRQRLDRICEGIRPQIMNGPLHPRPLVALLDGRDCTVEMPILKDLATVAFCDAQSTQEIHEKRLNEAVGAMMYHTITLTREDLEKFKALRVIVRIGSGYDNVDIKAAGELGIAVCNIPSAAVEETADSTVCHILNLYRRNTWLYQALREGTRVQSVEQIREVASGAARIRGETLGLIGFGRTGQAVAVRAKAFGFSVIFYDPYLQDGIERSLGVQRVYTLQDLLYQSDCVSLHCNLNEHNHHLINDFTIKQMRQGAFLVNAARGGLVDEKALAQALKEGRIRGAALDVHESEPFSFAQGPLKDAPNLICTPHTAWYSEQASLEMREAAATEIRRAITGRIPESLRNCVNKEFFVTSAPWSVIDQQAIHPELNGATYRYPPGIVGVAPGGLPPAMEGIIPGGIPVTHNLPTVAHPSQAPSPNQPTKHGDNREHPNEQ

Row | Substance | effect of a mutation on the interaction
1 | C-terminal-binding protein 2 (Mus musculus), P56546 A58E | disrupting interaction
2 | C-terminal-binding protein 2 (Mus musculus), P56546 V72R | disrupting interaction
